Experimental data published in the supplement of paper PMC9170038.

System: MS2 coat protein
Test: apparent KD of MS2 coat protein; designed switch direction (-1 OFF switch, 1 ON switch): -1; higher = weaker reporter binding
Summary of the method: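 Three titration conditions were used: no input, 200 uM small-molecule ligand, and an oligonucleotide input. In each, SNAP-549-labelled MS2 coat protein was raised from 0.7 or 1.5 nM, doubling, to 3 µM over designed RNA switches transcribed on Illumina chips by stalled E. coli RNA polymerase. Curve fits of normalised cluster fluorescence gave values whose per-design median over clusters is the apparent KD.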

[1] = input ligand: microRNA oligo, concentration not stated
[2] = Eterna round: R95, input ligand: FMN 200 uM
[3] = Eterna round: R95, input ligand: microRNA oligo, concentration not stated
[4] = Eterna round: R95, input ligand: none

Row | Sequence | apparent KD of MS2 coat protein (input ligand: FMN 200 uM) | apparent KD of MS2 coat protein [1] | apparent KD of MS2 coat protein (input ligand: none) | apparent KD of MS2 coat protein [2] | apparent KD of MS2 coat protein [3] | apparent KD of MS2 coat protein [4]
1 | UUUUUAUAUGAAGGAUAUACUUAACAUGAGGAUCACCCAUGUGGUGUUGUGAGUGAGUGAGUUUAGUAGAAGGUCAAUUAGCUU [JMF's solution 100] (Eterna round: R96, puzzle: Exclusion NG 2) | 330 nM | 185 nM | 342 nM |  |  | 
2 | ACUCACGCAGGAUAUACAUGAGGAUCACCCAUGUUCAAAGGGCGCGGGAACAUCGUCUGUAGAAGGGCGAACAU [jl-ex3-4.62 ViennaUCT mod] (Eterna round: R97, puzzle: Exclusion 3) | 40.4 nM |  | 29 nM |  |  | 
3 | GGAUGUUAGGAGGAUAUCUGACGUCGAAAAGAAGGAGAAGGCCUGACAUGAGGAUCACCCAUGUGGUCAAAAGA [Eresinbi] (puzzle: Exclusion 6) |  |  |  | 1200 nM | 110 nM | 97.8 nM
4 | CUAAUUUGUGUGAGGAUAUGGCGACAGGAGACUAGCCAGAAGGUACAUGAGGAUCACCCAUGUAAGGUCCUCUC [Eternabot (L1) Solution 86] (Eterna round: R97, puzzle: Brourd's mod of Exclusion 4) | 16.8 nM |  | 16.3 nM |  |  | 
5 | AUCUUGAUAGGAUAUACAUGAGGAUCACCCAUGUCCCACCCGUUACCUCUGGCCCUAUGUAGAAGGAUCGUCUA [Exy#20] (Eterna round: R97, puzzle: Exclusion 3) | 50.5 nM |  | 68.5 nM |  |  | 
6 | AAUAACAAGCAGAUCCUCCACAUGAGGAUCACCCAUGUGCUCGUCUUGUAAAGUACUAUCACGAAAGUGAUAGUACA (Eterna round: R97, puzzle: Sensor, turn-off variant 1) | 724 nM |  | 718 nM |  |  | 
7 | GGUCUACAUGAGGAUCACCCAUGUAAGGAUAUCGUCACUGGAGCUGCGGCUCCAGUGACGAGAAGGUGCAUAAU [E1/11-A3] (Eterna round: R97, puzzle: Exclusion 1) | 39.4 nM |  | 30.8 nM |  |  | 
8 | CUUAGACAUGAGGAUCACCCAUGUGAGGAUAUGAUGCGAAUGAAGAAAGAAGGAAGCAUCAGAAGGCACAUAUG [Mat - Mod of Hyphema D26] (puzzle: Exclusion 1) |  |  |  | 323 nM | 163 nM | 143 nM
9 | UACUGGACAGGAUAUGUUCUUGAGCACUUGAGGAUCACCCAAGUCAUCAAGAACUCAGGCACAGAAGGGUUUAUGC [salish99_ex5_r4_007] (Eterna round: R97, puzzle: Exclusion 5) | 19.1 nM |  | 14 nM |  |  | 
10 | CUUUCGUGAGGAUAUGAAGCUUCGAUCGUGAGAUCGAGGCUACAGAAGGCACAUGAGGAUCACCCAUGUUCCUC [salish99_ex4_r4_217] (Eterna round: R97, puzzle: Exclusion 4) | 666 nM |  | 31.9 nM |  |  | 
11 | AAUAAGCUAGGAUAUACAUGAGGAUCACCCAUGUGAGGGCACGGCCGGCGCGUUUCCGGUAGAAGGAGUCAUAA [Exc;s3-VII] (puzzle: Exclusion 3) |  |  |  |  | 33.2 nM | 
12 | AAUCAUCAUGUAGGAUAUGCGUGGCGAAGCUAUGCAGAAGGACAUGAGGAUCACCCAUGUUCUUGCGUCUGCGUACAGAUGCAA [Mat - Exclusion NG 1 - Mod of JL - D72] (Eterna round: R96, puzzle: Exclusion NG 1) | 135 nM | 67.7 nM | 72 nM |  |  | 
13 | GCUUGGCGAGGAUAUACAUGAGGAUCACCCAUGUGAGAGAAAUAAGUGAGGAAGAAAAGUAGAAGGCGCUGAGG [Mat - Exclusion 3 - Mod of Salish D59] (puzzle: Exclusion 3) |  |  |  | 167 nM | 58.9 nM | 61 nM
14 | GUGACCAUAGGAUAUACAUGAGGAUCACCCAUGUGCAGGCCGAAAGACCUGCGGUCAUGUAGAAGGAUGUAAUU [EX3 A.17] (Eterna round: R97, puzzle: Exclusion 3) | 19.6 nM |  | 16.4 nM |  |  | 
